Assay results taken from patent US20200171068A1, “COMPOSITIONS COMPRISING APTAMERS AND NUCLEIC ACID PAYLOADS AND METHODS OF USING THE SAME” (Children's National Medical Center, priority 2017, published 2020).

Legend:
[1] = system: hematopoiesis; assay: Carboplatin-induced myelosuppression in mice; type: in vivo, mouse
Protocol: For xenograft models, the NSG mice and BALB/c mice were subcutaneously injected with 2×10^6 viable MDA-MB-231 cells and TUBO cells in their right hind limbs, respectively. After the tumor grew to 1 cm in diameter, mice were randomly divided into the groups for each treatment. For no treatment control, 100 μl saline with 1% mouse serum was intravenously injected through tail vein. For treatment groups, 670 pmol/20 g chimeras and/or 5(0 mg/kg 5-fluorouracil (5-FU), or 120 mg/kg carboplatin were also intravenously injected. Tumor sizes were measured in two dimensions every 3 days. Tumor volume (V) was calculated using the following formula: V=(½) S^2×L (S. the shortest dimension; L, the longest dimension). Animals were euthanized when the tumor size was over 2 cm diameters, tumor ulcerated, or became necrotic. For chimera treatment in normal mice, C57BL/6 mice were treated with miR-26a chimera (670 pmol/20 g) everyday for 3 days by intravenous injection. At day 2, 150 mg/kg 5-FU and/or 120 mg/kg carboplatin was injected together with the chimera. Peripheral bloods were collected at day 5 and day 10 after the 5-FU treatment. Complete blood counts were measured by Hemavet 950FS (Drew Scientific, Miami Lakes, Fla., USA).

[2] = Plasma levels and in vivo imaging of miR-26a chimera in TUBO tumor-bearing BALB/c mice; parameters: species or system mouse; conditions: 670 pmol single intravenous dose, qPCR
Protocol: FIG. 8A is a graph showing the pharmacokinetics of plasma levels of miR-26a chimera and the single dose administration in BALB/c mice bearing mouse TUBO breast cancer cell line. miR-26a chimera (670 pmol/20 g) was injected intravenously. Blood samples were collected at the indicated time points. The concentrations of miR-26a were determined by quantitative PCR using standard curve generated with dose-titrated miR-26a chimera. Data were pooled from three experiments, involving a total of 3 mice. FIG. 8B is a series of pictures showing in vivo imaging of miR-26a chimera conjugated with AF647 dye in BALB/c mice bearing tumor with TUBO cell line. A single dose of miR-26a chimera (670 pmol/20 g) was intravenously injected and followed by serial fluorescence imaging at the indicated time points by IVIS spectrum (Caliper LifeSciences, Waltham, Mass.). Data shown are series images from one experiment. Similar data were obtained from another experiment.

[3] = system: TUBO-derived tumors; assay: Syngeneic TUBO breast tumor model in BALB/c mice; type: in vivo, mouse
[4] = system: TUBO cells; assay: Binding to TUBO cells by flow cytometry; parameters: species or system mouse; conditions: biotinylated
Protocol: DNA sequences for anti-human KIT aptamer (21) and mouse c-Kit aptamers (22) conjugated with biotin at 3′ were functionalized by short denaturation-renaturation step (95° C. 10 min, 5 min snap-cooling on ice). These DNA sequences were 5′-[…] […]-3′ (SEQ ID NO: 2) for human KIT, 5′-[…]-3′ (SEQ ID NO:3) for mouse c-Kit. These activated aptamers were used for binding assay to the cell lines by flow cytometry. For chimera preparation, human KIT-aptamer or mouse c-Kit-aptamer miR-26a chimera was assembled by three compartments of DNA/RNA hybrid sequences. The sequences were 5′-[…] […]/C3 (SEQ ID NO:4) spacer/CCUAUUCUGG-3′(SEQ ID NO:5) for human KIT aptamer+the part of passenger sequence for miR-26a-5p, 5′-[…]/C3 (SEQ ID NO:6) spacer/CCUAUUCUGG-3′ (SEQ ID NO:7) for mouse cKit aptamer+the part of passenger sequence for miR-26a-5p, 5′-GUUACUUGCACG/TEG (triethylene glycol)-Cholesterol-3′ (SEQ ID NO:8) for the part of sequence for miR-26a-5p+cholesterol, and 5′-[…]-3′ (SEQ ID NO:9) for guide sequence for miR-26a-5p (RNA sequences were represented as italic). The guide sequence for scramble control was […] (SEQ ID NO:10). To protect the oligonucleotide sequences from nuclease degradation, phosphorothioate bonds were introduced between the last 3 nucleotides at the 5′-end of DNA aptamers. The RNA sequences were modified with 2′-fluoro-uridines. […]

B1: miR-26a chimera: mouse c-Kit DNA aptamer-C3-passenger RNA, passenger RNA-TEG-cholesterol and miR-26a-5p guide strand annealed (SEQ ID NO:6/7, 8, 9) (nucleic acid)
chain 1: GCTCAACGCGGGACGGCTCTCCCATTGAC
chain 2: CCUAUUCUGG
chain 3: GUUACUUGCACG
guide: UUCAAGUAAUCCAGGAUAGGCU
modifications: chemistry not fully specified
In the case of B1, the “carboplatin-induced myelosuppression (figure title)” value ([1]; 670 pmol/20 g i.v. daily for 3 days, FIG. 6) is reported as “protects mice against carboplatin-induced myelosuppression”, the “carboplatin-induced reduction in WBC and RBC” value ([1]; 3 daily injections of chimera) is reported as “prevented reduction in WBC and RBC” and the “carboplatin-induced reduction of platelet on day 5” value ([1]; 3 daily injections of chimera) is reported as “not prevented”. For the same molecule, the “drop of platelets from day 5 to day 10” value ([1]; 3 daily injections of chimera) was “prevented further drop of platelets”, the “time miR-26a chimera could be detected in the blood after injection” value [2] was ≤ 8 h and the “Bak expression among c-Kit+ tumor cells” value ([3]; 670 pmol/20 g, 3 days) was “not significantly elevated”. The “Ezh2 expression among c-Kit+ tumor cells” value ([3]; 670 pmol/20 g, 3 days) was “specific decrease”, the “miR-26a among c-Kit+ tumor cells” value ([3]; 3 days after injection, qPCR) was “significant increase” and the “miR-26a levels in c-Kit+ BM cells” value ([3]; day 3 after single treatment, qPCR) was “selective increase”. For the same molecule, the “Bak1 expression in c-Kit+ HSPC” value ([3]; mice that received no 5-FU-treatment) was “not significantly down-regulated” and the “binding to TUBO cells” value [4] was “nearly identical levels comparable to an anti-c-Kit antibody”.
